Reference: patent publication US5597719, “Interaction of RAF-1 and 14-3-3 proteins” (Onyx Pharmaceuticals, Inc., dated 1997)

B1: human HS1 1054 (14-3-3β) fused with GAL4 activation domain (other)
chain: MTMDKSELVQKAKLAEQAERYDDMAAAMKAVTEQGHELSNEERNLLSVAYKNVVGARRSSWRVISSIEQKTERNEKKQQMGKEYREKIEAELQDICNDVLELLDKYLIPNATQPESKVFYLKMKGDYFRYLSEVASGDNKQTTVSNSQQAYQEAFEISKKEMQPTHPIRLGLALNFSVFYYEILNSPEKACSLAKTAFDEAIAELDTLNEESYKDSTLIMQLLRDNLTLWTSENQGDEGDAGEGEN
B2: 14-3-3β (not fused to GAL4) (other)
chain: B1 chain
B3: human P1A2 (14-3-3ζ) fused with GAL4 activation domain (other)
chain: MDKNELVQKAKLAEQAERYDDMAACMKSVTEQGAELSNEERNLLSVAYKNVVGARRSSWRVVSSIEQKTEGAEKKQQMAREYREKIETELRDICNDVLSLLEKFLIPNASQAESKVFYLKMKGDYYRYLAEVAAGDDKKGIVDQSQQAYQEAFEISKKEMQPTHPIRLGLALNFSVFYYEILNSPEKACSLAKTAFDEAIAELDTLSEESYKDSTLIMQLLRDNLTLWTSDTQGDEAEAGEGGEN
B4: 14-3-3ζ (not fused to GAL4) (other)
chain: B3 chain

What was measured:
[1] = biological target: GAL4 DNA-binding domain alone (Saccharomyces cerevisiae (strain ATCC …, UniProt P04386)); assay: yeast two-hybrid
Description: However, interaction between 14-3-3β and the bcr gene product, which itself has endogenous kinase activity, was detected.
The Raf-1 coding sequence was isolated by PCR amplification of a human placental cDNA library purchased from Stratagene (San Diego, Calif.) as described by MacDonald et al. (1993) *Mol. Cell Biol.* 13: 16.15. For use in the two hybrid screen (Chien et al. (1991) *Proc. Natl. Acad. Sci. USA* 88: 9578), the Raf-1 gene was fused to sequence encoding the GAL4-DNA binding domain by digesting pGEM Raf-I with NcoI and SacI to liberate the Raf-1 coding sequence and subcloning into the pGBT8 plasmid (Hannon et al. (1993) *Genes & Dev.* 7: 2378) digested also with Nco I and Sac I. Yeast (*S. cerevisiae*) of strain YGH-1 (Hannon et al. (1993) op.cit.) were transformed with pGBT8 Raf1, and the resultant strain was transformed with a HeLa cell cDNA library encoding fusions with the GAL4 activation domain in the plasmid pGAD (Chien et al. (1991) *Proc. Natl. Acad. Sci.* (USA) 88: 9578). The YGH-1 strain contains two reported genes, HIS3 and lacZ, which allow selection of cDNAs encoding proteins capable of interacting with the gene of interest, in this case, Raf-1. The first selection was by the ability to grow on plates lacking histidine. Positive colonies were then tested for production of β-galactodidase using X-gal as substrate as described by Hannon et al. op.cit. […]

[2] = biological target: full-length Raf-1 (wildtype Raf) (human); assay: cell-based or functional assay
[3] = biological target: Ras-binding domain of Raf (aa51-aa131) (human); assay: ELISA

| Binder | binding result [1] | Raf activity in cells containing the 14-3-3 proteins [2] | binding result [3] |
| --- | --- | --- | --- |
| B1 | no binding | – | – |
| B2 | – | 2 fold increase over background | no binding |
| B3 | no binding | – | – |
| B4 | – | 2 fold increase over background | – |
